Reference: patent publication CN116472284A

Biological target: SARS-CoV-2 spike on ZsGreen SARS-CoV-2-pseudotyped lentivirus (SARS-CoV-2) (UniProt P0DTC2)
Experiment: cell-based or functional assay

Nb6-tri (trivalent Nb6 with two 20 amino acid linkers) (VHH)
IC50, inhibition of SARS-CoV-2 pseudotyped lentivirus infection: 1.2 nM
fold gain of inhibitory activity against monovalent Nb6, pseudovirus: 2000 fold
